{
  "source": "the domain aggregation screens of Martell et al. (2025)",
  "data": [
    {"assay": "soluble fraction after stress (log2 fold change); higher = more stays soluble; pooled small domains, quantitative proteomics", "settings": "stress: 75 degC", "values": [
      {"sequence": "HMRKIVEGVLTKKEGKWYLLTDIETYKISDASAEYHKAELNDRASALIPAQNPKVPFASLEKVFN", "soluble fraction (log2)": -1.01},
      {"sequence": "HMRKLHFVMSEIYEDHPWIGSKLQDVFLPKDIRVVLVERDSKQFMPNGQTLFELGDRLTLSALHYDPA", "soluble fraction (log2)": -2.8},
      {"sequence": "HMRKLTDRQRQILDLIKTIIAETGAPPTRAEISTALGFKSANAAQEHLQALAQKGMIDLVSGASRGIRLRG", "soluble fraction (log2)": -0.99},
      {"sequence": "HMRKMELTEAAEKLIEEPDVVSAYRNMQQIFQQWREIGPVPREQRDEVWSHFKDLMTQVNRRHQAHFEN", "soluble fraction (log2)": 0.113},
      {"sequence": "HMRKPLDQSWVPDDDAMKILTNSGIEKEFIKNEIPEFILYWSDKGEISDSWNTKFISQIRRQWAKNQ", "soluble fraction (log2)": -0.0241},
      {"sequence": "HMRKSAVSSTLTSIEGIGATRAKALLKHFKTVAAVSEADLKELEDAPGMTRPSALRVYEYFHGK", "soluble fraction (log2)": -0.342},
      {"sequence": "HMRKSLGEIVFDRMERAIKSGAYSPDERLPTELDLAAEFEVSRPVIRDALKRLRERGLIYSRQGAGSFVRA", "soluble fraction (log2)": -0.813},
      {"sequence": "HMRKTIQDFLSSNKVDIAKLLTLALEKTKEDLYKNLSYNLTNKELEKLKLLIKKREQGIPFAYLS", "soluble fraction (log2)": -0.348},
      {"sequence": "HMRLADHVVEKLLALVQERGLQPGQKLPAERQLAEVLGVSRTSVREAIQKLVSQGVLSARRGDGTYVQS", "soluble fraction (log2)": -0.302},
      {"sequence": "HMRLANGIGTVYKLSGNRRNPYIVRKTTGWEIDEESGKAKQKYITIGYAPTRAKGLEMLMDYNKNP", "soluble fraction (log2)": -0.895},
      {"sequence": "HMRLDHIFSVVERLKGVSLGAGDRLEVQKYEDLLTVYKSKNALSSEEAQTLNDILASLLKMMAKYD", "soluble fraction (log2)": -1.05},
      {"sequence": "HMRLDSELVSARLHRFMGTNRKPDGEIVEKIAAILEGHPIETLDAFLQSLNGRKIKSYGFFPTVLRREIAN", "soluble fraction (log2)": -0.319},
      {"sequence": "HMRLEEVSVPQRLLAAIAEEREVQIGIVDGRGGTRVLRVEPLALEGGRLRARDVESGEEFTVLIHRVLL", "soluble fraction (log2)": -1.19},
      {"sequence": "HMRLLAESIARGLDPEGSGGLWAKEAGAEALKLMETLAAEAPHGGSFTAAAYRDLFESLVHQGEVREA", "soluble fraction (log2)": -0.00417},
      {"sequence": "HMRLLGEPLAGRLKKDVPVVTGRSTESKAIAQFFELRWSHLPDPEARTISVASGRIDFMDVGATRFSLR", "soluble fraction (log2)": 0.0725},
      {"sequence": "HMRLSDSEFESIENAIKEKLENSALTADVLVKELSFDEDKIWKVIRWLEDAEKISEDEAGTLLWKPR", "soluble fraction (log2)": -0.0971},
      {"sequence": "HMRLSESLLDDIPGIGAARKRALLQSFGSVRKLRHADAEEIAAKVPGIGLNFAEKIVEALRKK", "soluble fraction (log2)": 0.391},
      {"sequence": "HMRLTTTPKTARGLTTMNRIIRAAEVEFGRKGYHYTGITDIAQRAKVASGTIYLYFTDKYSLYVHLLT", "soluble fraction (log2)": 0.159},
      {"sequence": "HMRLYTQDVAVLNRDVIQGEVITSDMVTTVNVHKRTVPTGALNLSEIPGNVAKFNIPASIPITASMVTK", "soluble fraction (log2)": -0.0186},
      {"sequence": "HMRMLLKELLIQYEVKNDKSHVEVAKEVGVSLSTYYRWLNGESLHLKKRTIDRLSEVLHYDINQVVEES", "soluble fraction (log2)": -2.52},
      {"sequence": "HMRMLSEGAQRMLRGLAVLEEASADRLLELHQGDYPGFVRSLFALESAGLFQRNGSGTWIRR", "soluble fraction (log2)": -0.91},
      {"sequence": "HMRMNASERQNQIVDLLSQNGVMKIMDIADHFNVSRETIRRDLIILEDDNRIKKWFGGVISAN", "soluble fraction (log2)": -0.706},
      {"sequence": "HMRMQRYYLTDMSEKGREALPGVLDEMGYAGRYTMSDNSIAINSNMIVLSKAIKRAEDIAHNE", "soluble fraction (log2)": -0.089},
      {"sequence": "HMRMRPNERQKRIIELLSFRRHETIGNFANEFGVSRDTIKRDIITLQEEYPIISERGYEGGISLPDGYYI", "soluble fraction (log2)": -1.08},
      {"sequence": "HMRMSLDEAKAVVLPIGEYKGRNMGEVLAIKPELIDFYASQKFNSSKYPYLKEAAQVILENQ", "soluble fraction (log2)": 0.114},
      {"sequence": "HMRMSPRERKIYQFIENHPGTKSGEMAEKLGIPLPTIKRLLSDMVASKLLQKHGTGAGTNYSIEE", "soluble fraction (log2)": 0.43},
      {"sequence": "HMRMSQLSRLISILTLLKSKRLLTATELAEKYDVSIRTVYRDIRKLEEAGIPVYTIEGRGYSLMDNYT", "soluble fraction (log2)": -1.42},
      {"sequence": "HMRNANENTLKDLPVAVPNIHVSNIEEKKDFHLIQLEYSQEFDPREDLFNFAVNSSWVILKMTPT", "soluble fraction (log2)": 0.215},
      {"sequence": "HMRNDIFDQLTEREMQILQEVAKGYRNKQIADHLFISESTVKVHMKSLLKKLQVPSRTAATVLYLERYG", "soluble fraction (log2)": -1.55},
      {"sequence": "HMRNEFEAHSDGTRIQLNDRSKATFSVYDVQGRLIHSFQDFSGSSFNIEPKNQLLIITRETAEGVSVKKLV", "soluble fraction (log2)": 0.34},
      {"sequence": "HMRNKTVKEVLDYIEKNSEFIFFYYSKAIDTKRIVSLSVKDQPITVILDQLFKNTDVLYEIKDRQISLKRE", "soluble fraction (log2)": 0.1},
      {"sequence": "HMRNTETMKEIQAFVEDYFFEYHQSPSMQKVADAIGTSKSTAYYYVMEMARNGMLHYDGKTIETPHTQKS", "soluble fraction (log2)": -0.82},
      {"sequence": "HMRPDDPYLVIGASREMGDEELKRHYRRLVAETHPDRGIARGLPAEAIAIATRRLAAINAAWDAIERERGL", "soluble fraction (log2)": 0.000257},
      {"sequence": "HMRPDSFEAGEAEAGSRLDRLLAARLGIPRNQVQQWIGGGRVTVDAEPVRASLVVRAGMRIAWDPPPPP", "soluble fraction (log2)": -1.56},
      {"sequence": "HMRPEKLVLKALRGAHGPLSAEEVAGRIEADGGAGLDVARVEHVLGQLERSGTVAALGGGKYLALR", "soluble fraction (log2)": 0.692},
      {"sequence": "HMRPHDDHLREQLLGIATETIARTGVEGLSLRTLATDAGTSTSAVYQLFGSRAALLDAVYLRVLE", "soluble fraction (log2)": -1.47},
      {"sequence": "HMRPLISQTLRIDRGEGDIAGPLGVLAKEYPHLSMGSYPFQKDGIYGAHVVIRGSDPGMVEAAMDKLKAAF", "soluble fraction (log2)": 0.338},
      {"sequence": "HMRPLTPLEKLTPDADGKYYHIVQSGETLSWIAKLYETTAEKLQAWNNLFSSDIFPNQKLLLQVTPP", "soluble fraction (log2)": 0.134},
      {"sequence": "HMRPPLEWGTHGEITTRTVASGYVRASARVRLWDGELQRMTATASTASDARASLQHRIAERLRFSEL", "soluble fraction (log2)": -1.45},
      {"sequence": "HMRPPLRAAIIDHLARDWHTVAELARLLPASGAHVSRLVVELRAVGAVDERISHPDWPGNRPTEYRLRRA", "soluble fraction (log2)": -3.57},
      {"sequence": "HMRPTHYSGPSVIAMINNRVWFSDGSRLAPGEHHDDLEVVGLSPPWSAKVRWQGVEFDVGLFE", "soluble fraction (log2)": -2.35},
      {"sequence": "HMRQGHLDLLRQIHALPPSTREVVYLRAFGGLSFREIGDVLGRTETWARVTFYRGKEALRKG", "soluble fraction (log2)": -0.106},
      {"sequence": "HMRQHHMIISTKLGTPKEELAKLVSGFEDQGLRVSVITGTDYTVIGLVGDTTHLDEKRIRANPYVDNVQRV", "soluble fraction (log2)": -0.813},
      {"sequence": "HMRQIMIIVLKSTATKEDSLLFKNKLEQEYGVKVNEWTGVESTVLGLIGDTTKIDIDYISAQDIVESVKRV", "soluble fraction (log2)": -2.27},
      {"sequence": "HMRQKTTFFATESFELPNGEKVEEGQIFRLNDGAFNIAEQQGITRFLTSEANYGRMIAANAEVEKAKLDA", "soluble fraction (log2)": 0.605},
      {"sequence": "HMRQLISIYNNTIGADEIDQMRNILSNSGYKEGVDFAVQTADKKSVILVRRDLAGMIQEQLSGEGLPS", "soluble fraction (log2)": -0.119},
      {"sequence": "HMRQNPESFLNHKVKKNESLESLTKKYELTENEIIFYNPLIQKIGLKKRMILKIPIYNNQNLVTKSVD", "soluble fraction (log2)": -0.15},
      {"sequence": "HMRQPRGQRVTVREASSLLPFLFAHLTDRSRSAVKSLLRHGQIWVNGRVTTHFDMPLRPGDTVLISHERG", "soluble fraction (log2)": -1.33},
      {"sequence": "HMRQSQEVSGGERYRRLTAYLDTHPFITRKEYSGITGLLKNKALNDLNLLVNKGYLEAMGRGSHKVYVRPM", "soluble fraction (log2)": -0.86},
      {"sequence": "HMRQSSLRTRELLIDAARQLFARFGVEKTTMNDIAEASKRGRRTVYMYFNSKSDVFYAVVGRE", "soluble fraction (log2)": -0.0881},
      {"sequence": "HMRQVFPNPSSSQIKLASSRIGQAFSILDQQGRVVLSGKVSEEAVIALENLAKGIYVLKIGSWSETILK", "soluble fraction (log2)": -2.89},
      {"sequence": "HMRRATLERLANNTAEKAIRYKRSLALEPMNPQERRIIHAALQEVEGVSTHSVGTEPNRKVIVVPDGV", "soluble fraction (log2)": -0.329},
      {"sequence": "HMRRFEFSDGSSNKFWQITRDGTSLTVTFGKIGTAGQTQLKELATEAAAIAEHDKLVKEKTKKGYAEVG", "soluble fraction (log2)": -0.174},
      {"sequence": "HMRRGFGYVRKLPSGRWQASFVGPDLARHSAPHTFETKGDAEGWLGRRQADVVAGEWRPPVP", "soluble fraction (log2)": -0.00612},
      {"sequence": "HMRRISLEDWQLIESLIRRDWSPEQISLWLKKYKKIRVSHEWIYQYILKDKSKAGDLHTHLRSR", "soluble fraction (log2)": 0.00689}
    ]}
  ]
}
